In patent US8663655B2, “Method for transforming a bacterium belonging to the Streptococcus genus by natural competence” (Dupont Nutrition Biosciences APS, dated 2014):
Like-named read-outs stand apart in the source and are kept apart here. One block for each molecule: values may come before it.

Assays:
[1] = target: STER-0316 homologue of S. thermophilus CNRZ1066 (Streptococcus thermophilus CNRZ1066)
[2] = target: T1, transcriptional regulator (Rgg) STER-0316 (Streptococcus thermophilus LMD-9); assay: cell-based or functional assay
T1 chain: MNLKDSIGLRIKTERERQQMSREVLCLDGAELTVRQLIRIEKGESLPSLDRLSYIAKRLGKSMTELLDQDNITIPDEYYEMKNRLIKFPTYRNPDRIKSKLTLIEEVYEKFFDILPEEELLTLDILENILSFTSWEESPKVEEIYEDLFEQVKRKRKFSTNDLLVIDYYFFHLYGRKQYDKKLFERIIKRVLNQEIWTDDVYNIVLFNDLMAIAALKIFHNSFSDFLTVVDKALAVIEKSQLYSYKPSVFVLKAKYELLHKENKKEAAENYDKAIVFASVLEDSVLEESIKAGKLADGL

[3] = target: STER-0316 homologue of S. thermophilus CNRZ1066 (Streptococcus thermophilus CNRZ1066); remark: listed apart in the source
[4] = target: STER-0316 homologue of S. thermophilus LMG18311 (Streptococcus thermophilus LMG18311)
[5] = target: STER-0316 homologue of S. thermophilus CNRZ1066 (Streptococcus thermophilus CNRZ1066); remark: listed apart in the source
[6] = target: STER-0316 homologue of S. thermophilus LMG18311 (Streptococcus thermophilus LMG18311); remark: listed apart in the source

Transformation rate of S. thermophilus CNRZ1066 with peptide addition (1 µM) [1]: 3.48e-07
Molecule: synthetic peptide PYFTGCL

Transformation rate with peptide addition (1 µM) [2]: 0.00478
Transformation rate of S. thermophilus CNRZ1066 with peptide addition (1 µM) [3]: 0.000369
Transformation rate of S. thermophilus LMG18311 with peptide addition (1 µM) [4]: 0.000317
B1: synthetic peptide PYFAGCL (peptide)
peptide: PYFAGCL

Transformation rate with peptide addition (1 µM) [2]: 0.00342
B2: synthetic peptide ILPYFAGCL (peptide)
peptide: ILPYFAGCL

Transformation rate with peptide addition (1 µM) [2]: < 1e-08
B3: synthetic peptide PYFAGC (peptide)
peptide: PYFAGC

Transformation rate with peptide addition (1 µM) [2]: < 1e-08
B4: synthetic peptide ILPYFAGC (peptide)
peptide: ILPYFAGC

Transformation rate with peptide addition (1 µM) [2]: < 1e-08
B5: synthetic peptide AILPYFAGC (peptide)
peptide: AILPYFAGC

Transformation rate with peptide addition (1 µM) [2]: < 1e-08
B6: synthetic peptide LPYFAGC (peptide)
peptide: LPYFAGC

Transformation rate of S. thermophilus CNRZ1066 with peptide addition (1 µM), donor pGIUD0855cat [5]: 0.03
Transformation rate of S. thermophilus LMG18311 with peptide addition (1 µM), donor pGIUD0855cat [6]: 0.13
Transformation rate with peptide addition (1 µM) [2]: 0.00318
B7: synthetic peptide LPYFAGCL (peptide)
peptide: LPYFAGCL

Transformation rate with peptide addition (1 µM) [2]: < 1e-08
B8: synthetic peptide PYFAG (peptide)
peptide: PYFAG

Transformation rate with peptide addition (1 µM) [2]: 0.00221
B9: synthetic peptide AILPYFAGCL (peptide)
peptide: AILPYFAGCL

Transformation rate with peptide addition (1 µM) [2]: < 1e-08
B10: synthetic peptide ILPYFAG (peptide)
peptide: ILPYFAG
